Laboratory results published in US20160201045A1, “Endo-xylanase and Coding Gene and Use Thereof” (SHANGHAI INSTITUTES FOR BIOLOGICAL SCIENCES CHINESE ACADEMY …, priority 2013, published 2016).

How the values were obtained:
Type in all cases: biochemical
[1] = Screening of mutant clones for improved thermal stability (96-well, heat treatment, DNS); details: 52.5° C. water bath for two hours
Protocol: Transformants were picked up by sterile toothpick to a LB liquid culture containing antibiotic and IPTG (in a final concentration of 1 mM) contained within the wells of a 96-well plate and cultured overnight at 37° C. and 200 rpm. Thallus was collected by centrifugation. 100 ul buffers having the optimum reaction pH were added to re-suspend the thallus. Clone from each well was divided into a control group and a treatment group, with 50 ul for each well. The control group was stored at 4° C. The treatment group was treated in a water bath having a suitable temperature for 2 hours. After adding 2% xylan to each well, the mixture was allowed to react under 37° C. for 1 hour. Enzymatic activity was detected according to the DNS method. After treatment, the treatment group of the wild type clone retained an enzymatic activity which was about 10˜20% of its control group. […] The thermal stability of finally obtained mutants was tested according to the method described in Example 3. The overnight thallus was re-suspended and divided into two groups, which were the control and treatment groups, respectively. […] Then the enzymatic activity was detected. The residual enzymatic activity of the treatment group was calculated as a percentage of the enzymatic activity of the treatment group in relative to that of the control group. […]

[2] = Hydrolysis of Xyl7 on different substrates (DNS method); details: substrate 2% (w/w), pH7.0, 50, 10 minutes
Protocol: (§1) In a 100 μl reaction system, birch xylan was added to a final concentration of 1% (w/w), and Na2HPO4/NaH2PO4 buffer (pH7.0) was added to a final concentration of 100 mM. A suitable amount of enzyme solution diluted by the abovementioned buffer was added to the reaction system for reaction at 50[…] for 10 minutes. 100 μl DNS were added to stop the reaction. For the control, 100 μl DNS were firstly added to the above reaction system before adding the enzyme solution. The reaction mixtures were subjected to a boiled water bath for 5 minutes to develop color. Absorbance value at 540 nm was detected by a microplate reader. After subtracting the absorbance value of the control from that of the sample, the enzymatic activity unit (U) was calculated based on the standard curve.
Various substrates with a final concentration of 2% (w/w) were treated by a suitable amount of enzymes at pH7.0 and 50[…] for 10 minutes. Enzymatic activity was tested according to the above standard enzymatic activity detection steps. […] No detectable enzymatic activity was found for the other test substrates. This was consistent to the high substrate specificity of xylanase of the GH11 Family.

[3] = Residual activity under feed additive conditions (acidic pH, 37° C.); details: pH 4-5, 37° C., 15-60 minutes
Protocol: as §1
As a feed additive, xylanase is required to retain its enzymatic activity in a pH environment of about 4 due to the acidic environment in the stomach of livestock, such as pig, and retain its enzymatic activity in a pH environment of about 6 due to the weak acidic environment in the digestive tract of chicken. Therefore, Xyl7 was tested for its residual enzymatic activity after treated in pH4 or pH5 at a 37° C. bath for 15, 30, 45 and 60 minutes. The residual enzymatic activity was a ratio between the specific activity of the enzyme obtained after various treatments and that of the un-treated enzyme.

[4] = TLC analysis on hydrolyzed products of birch xylan by Xyl7
Protocol: 1% (w/w) Birch xylan was treated by 15 U Xyl7 at pH7.0 and 50[…] for 10 min, 1 h, 4 h, and 12 h, respectively, to obtain the hydrolyzed products. […], each 5 μl, were subjected to TLC for identification. The standard samples were xylose, xylobiose, and xylotriose. The developing agent comprised ethyl acetate, acetic acid and water in a ratio of 2:1:1(V/V/V). The chromogenic agent was a solution of 1 mL aniline, 1 g diphenylamine and 5 mL 85% phosphoric acid dissolved in 50 mL acetone.

- final hydrolyzed product if the enzyme was excessive ([4]; excess enzyme): xylose
B1: Xyl7: endo-1,4-β-xylanase of 505 amino acids, SEQ ID NO:2, from termite gut metagenome, expressed in E. coli with His tag (protein)
chain: MKKLIALSFIAAFFAPLFAQGPTWTTSTIQAYNGYDYELWNQNNAGTVSMKLTGDNGSGASAVGGTFTATWSNTQNVLFRSGKKWGSSSNQNHTQIGNMSINFAATWSSTDNVKMLGVYGWAYFTSANVPTKQENGTNASFSNQIEYYIIQDRGSYNPASGGTNAKKYGSATIDGIAYDFYVCDRINQPMLTGNGNFKQFFSVPQSASAHRTSGTISVSQHFNKWHELGMKMDGPLYEVAMKVESYTGSGSSNGSATVTKNLLTIGGTTPTPSSNSGGTTSSSSRASSSSRASSSSNAAVQATTCKTPLITYPTSTVPSDPYTACFKYTDDKCYVCKVENEGEFEGNMNTCGSGWVWDGTQIDNNLRDGYWYQEVPCPAGSSSSRSSSSSVAVSSSSRSSSSSVAASSSSRSSSSSASVSSSSEETPIRVLHTIPSKFRVRSLNNGALQIESNADVVLYLYDTKGKMAQKIEAPTGSSIVKLSVPAGIYIVRNVQTKEKLRVMVR
modifications: His tag; Intestinal tract metagenome of termite
- enzymatic activity of the treatment group as % of the control group [1]: 10˜20%
- Specific Activity on barley dextran [2]: 0 U/mg
- Specific Activity on carboxymethyl cellulose sodium [2]: 0 U/mg
- Specific Activity on laminarin [2]: 0 U/mg
- Specific Activity on locust bean gum [2]: 0 U/mg
- Specific Activity on microcrystalline cellulose powder [2]: 0 U/mg
- residual enzymatic activity in acidic environment [3]: retain a sufficiently high enzymatic activity
- hydrolyzed product of xylan, action time relatively short ([4]; 10 minutes, pH7.0, 50): oligoxylan
- hydrolyzed product of xylan, action time relatively long ([4]; 12 hours, pH7.0, 50): xylo-oligosaccharide, mainly including xylobiose, xylotriose and xylotetraose
